Reference: the supplement of paper PMC11246515
± gives the standard deviation of the averaged measurements.

Experiment: total protein half-life in vivo (active degradation + dilution); higher = more stable protein
[1] = E. coli NCM3722 delta-clpP delta-lon delta-hslV, growth: N-lim chemostat, doubling time 6 h
[2] = E. coli NCM3722 delta-clpP, growth: N-lim chemostat, doubling time 6 h
[3] = E. coli NCM3722 delta-hslV, growth: N-lim chemostat, doubling time 6 h
[4] = E. coli NCM3722 delta-lon, growth: N-lim chemostat, doubling time 6 h
[5] = E. coli NCM3722 delta-smpB, growth: N-lim chemostat, doubling time 6 h
[6] = wild type E. coli NCM3722, growth: C-lim chemostat, doubling time 3 h
[7] = wild type E. coli NCM3722, growth: C-lim chemostat, doubling time 12 h
[8] = wild type E. coli NCM3722, growth: N-lim chemostat, doubling time 6 h
[9] = wild type E. coli NCM3722, growth: N-lim chemostat, doubling time 12 h
[10] = wild type E. coli NCM3722, growth: P-lim chemostat, doubling time 6 h
[11] = wild type E. coli NCM3722, growth: P-lim chemostat, doubling time 12 h
[12] = wild type E. coli NCM3722, growth: C-lim chemostat, doubling time 6 h

P0ABR5, sequence (chain, as listed by the source): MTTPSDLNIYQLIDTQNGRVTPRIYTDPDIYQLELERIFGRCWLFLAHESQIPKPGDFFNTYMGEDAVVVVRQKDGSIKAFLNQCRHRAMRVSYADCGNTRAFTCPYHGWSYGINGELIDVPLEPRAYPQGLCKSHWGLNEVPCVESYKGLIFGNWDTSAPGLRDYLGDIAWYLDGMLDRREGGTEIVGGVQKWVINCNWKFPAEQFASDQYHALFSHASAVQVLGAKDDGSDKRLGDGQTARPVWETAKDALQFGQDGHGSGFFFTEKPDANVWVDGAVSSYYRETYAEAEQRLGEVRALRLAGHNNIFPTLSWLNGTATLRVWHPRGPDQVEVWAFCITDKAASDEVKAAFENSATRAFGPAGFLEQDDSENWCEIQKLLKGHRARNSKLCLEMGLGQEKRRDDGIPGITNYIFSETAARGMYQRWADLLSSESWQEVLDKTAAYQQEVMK

MNDAVITLNGLEKRFPGMDKPAVAPLDCTIHAGYVTGLVGPDGAGKTTLMRMLAGLLKPDSGSATVIGFDPIKNDGALHAVLGYMPQKFGLYEDLTVMENLNLYADLRSVTGEARKQTFARLLEFTSLGPFTGRLAGKLSGGMKQKLGLACTLVGEPKVLLLDEPGVGVDPISRRELWQMVHELAGEGMLILWSTSYLDEAEQCRDVLLMNEGELLYQGEPKALTQTMAGRSFLMTSPHEGNRKLLQRALKLPQVSDGMIQGKSVRLILKKEATPDDIRHADGMPEININETTPRFEDAFIDLLGGAGTSESPLGAILHTVEGTPGETVIEAKELTKKFGDFAATDHVNFAVKRGEIFGLLGPNGAGKSTTFKMMCGLLVPTSGQALVLGMDLKESSGKARQHLGYMAQKFSLYGNLTVEQNLRFFSGVYGLRGRAQNEKISRMSEAFGLKSIASHATDELPLGFKQRLALACSLMHEPDILFLDEPTSGVDPLTRREFWLHINSMVEKGVTVMVTTHFMDEAEYCDRIGLVYRGKLIASGTPDDLKAQSANDEQPDPTMEQAFIQLIHDWDKEHSNE [P0A9U1]
total protein half-life in vivo [1]: 5.78 ± 0.23 h
total protein half-life in vivo [2]: 6.03 ± 0.77 h
total protein half-life in vivo [3]: 6.28 ± 0.41 h
total protein half-life in vivo [4]: 6.03 ± 0.23 h
total protein half-life in vivo [5]: 5.83 ± 0.5 h
total protein half-life in vivo [6]: 3.32 ± 0.15 h
total protein half-life in vivo [7]: 11.8 ± 2.2 h
total protein half-life in vivo [8]: 6.05 ± 0.092 h
total protein half-life in vivo [9]: 12.6 ± 1.7 h
total protein half-life in vivo [10]: 6.15 ± 0.14 h
total protein half-life in vivo [11]: 12.3 ± 0.47 h

MTLSSQHYLVITALGADRPGIVNTITRHVSSCGCNIEDSRLAMLGEEFTFIMLLSGSWNAITLIESTLPLKGAELDLLIVMKRTTARPRPPMPASVWVQVDVADSPHLIERFTALFDAHHMNIAELVSRTQPAENERAAQLHIQITAHSPASADAANIEQAFKALCTELNAQGSINVVNYSQHDEQDGVK [P0A9I3]
total protein half-life in vivo [1]: 4.9 ± 0.79 h
total protein half-life in vivo [2]: 4.39 ± 0.19 h
total protein half-life in vivo [3]: 4.53 ± 0.06 h
total protein half-life in vivo [4]: 4.62 ± 0.24 h
total protein half-life in vivo [5]: 4.056 ± 0.037 h
total protein half-life in vivo [6]: 2.976 ± 0.012 h
total protein half-life in vivo [12]: 5.48 ± 0.32 h
total protein half-life in vivo [7]: 9.43 ± 3.2 h
total protein half-life in vivo [8]: 4.42 ± 0.34 h
total protein half-life in vivo [9]: 7.51 ± 0.33 h
total protein half-life in vivo [10]: 5.71 ± 0.46 h
total protein half-life in vivo [11]: 12.1 ± 1.4 h

MAQRVQLTATVSENQLGQRLDQALAEMFPDYSRSRIKEWILDQRVLVNGKVCDKPKEKVLGGEQVAINAEIEEEARFEPQDIPLDIVYEDEDIIIINKPRDLVVHPGAGNPDGTVLNALLHYYPPIADVPRAGIVHRLDKDTTGLMVVAKTVPAQTRLVESLQRREITREYEAVAIGHMTAGGTVDEPISRHPTKRTHMAVHPMGKPAVTHYRIMEHFRVHTRLRLRLETGRTHQIRVHMAHITHPLVGDPVYGGRPRPPKGASEAFISTLRKFDRQALHATMLRLYHPISGIEMEWHAPIPQDMVELIEVMRADFEEHKDEVDWL
total protein half-life in vivo [1]: 5.82 ± 0.6 h
total protein half-life in vivo [2]: 5.7 ± 0.94 h
total protein half-life in vivo [3]: 5.65 ± 0.66 h
total protein half-life in vivo [4]: 5.51 ± 0.46 h
total protein half-life in vivo [5]: 4.66 ± 0.21 h
total protein half-life in vivo [6]: 3.66 ± 0.34 h
total protein half-life in vivo [12]: 5.83 ± 0.07 h
total protein half-life in vivo [7]: 9.95 ± 1.4 h
total protein half-life in vivo [8]: 5.63 ± 0.2 h
total protein half-life in vivo [9]: 8.47 ± 0.64 h
total protein half-life in vivo [10]: 5.72 ± 0.12 h
total protein half-life in vivo [11]: 11.2 ± 0.25 h

MKSLSYKRIYKSQEYLATLGTIEYRSLFGSYSLTVDDTVFAMVSDGELYLRACEQSAQYCVKHPPVWLTYKKCGRSVTLNYYRVDESLWRNQLKLVRLSKYSLDAALKEKSTRNTRERLKDLPNMSFHLEAILGEVGIKDVRALRILGAKMCWLRLRQQNSLVTEKILFMLEGAIIGIHEAALPVARRQELAEWADSLTPKQEFPAELE
total protein half-life in vivo [1]: 5.96 h
total protein half-life in vivo [6]: 2.28 h
total protein half-life in vivo [12]: 4.19 h
total protein half-life in vivo [7]: 9.22 h
total protein half-life in vivo [10]: 3.79 ± 0.53 h

MKPENKLPVLDLISAEMKTVVNTLQPDLPPWPATGTIAEQRQYYTLERRFWNAGAPEMATRAYMVPTKYGQVETRLFCPQPDSPATLFYLHGGGFILGNLDTHDRIMRLLASYSQCTVIGIDYTLSPEARFPQAIEEIVAACCYFHQQAEDYQINMSRIGFAGDSAGAMLALASALWLRDKQIDCGKVAGVLLWYGLYGLRDSVTRRLLGGVWDGLTQQDLQMYEEAYLSNDADRESPYYCLFNNDLTREVPPCFIAGAEFDPLLDDSRLLYQTLAAHQQPCEFKLYPGTLHAFLHYSRMMKTADEALRDGAQFFTAQL
total protein half-life in vivo [6]: 3.18 ± 0.17 h
total protein half-life in vivo [12]: 5.349 ± 0.029 h
total protein half-life in vivo [7]: 8.02 ± 2.3 h
total protein half-life in vivo [9]: 11.6 h
total protein half-life in vivo [10]: 5.69 ± 1.1 h
total protein half-life in vivo [11]: 10.9 ± 1.4 h

P0ABR5
total protein half-life in vivo [1]: 6.36 ± 1.3 h
total protein half-life in vivo [6]: 1.02 h
total protein half-life in vivo [12]: 2.09 h
total protein half-life in vivo [7]: 3.87 ± 2.6 h
total protein half-life in vivo [10]: 1.661 ± 0.003 h
total protein half-life in vivo [11]: 2.48 ± 0.059 h

MSSLQILQGTFRLSDTKTLQLPQLTLNAGDSWAFVGSNGSGKSALARALAGELPLLKGERQSQFSHITRLSFEQLQKLVSDEWQRNNTDMLGPGEDDTGRTTAEIIQDEVKDAPRCMQLAQQFGITALLDRRFKYLSTGETRKTLLCQALMSEPDLLILDEPFDGLDVASRQQLAERLASLHQSGITLVLVLNRFDEIPEFVQFAGVLADCTLAETGAKEELLQQALVAQLAHSEQLEGVQLPEPDEPSARHALPANEPRIVLNNGVVSYNDRPILNNLSWQVNPGEHWQIVGPNGAGKSTLLSLVTGDHPQGYSNDLTLFGRRRGSGETIWDIKKHIGYVSSSLHLDYRVSTTVRNVILSGYFDSIGIYQAVSDRQQKLVQQWLDILGIDKRTADAPFHSLSWGQQRLALIVRALVKHPTLLILDEPLQGLDPLNRQLIRRFVDVLISEGETQLLFVSHHAEDAPACITHRLEFVPDGGLYRYVLTKIY
total protein half-life in vivo [1]: 4.48 ± 0.27 h
total protein half-life in vivo [2]: 4.73 ± 1.6 h
total protein half-life in vivo [3]: 3.5748 ± 0.0019 h
total protein half-life in vivo [4]: 4.54 ± 0.7 h
total protein half-life in vivo [5]: 4 ± 0.68 h
total protein half-life in vivo [6]: 2.84 ± 0.087 h
total protein half-life in vivo [12]: 5.233 ± 0.03 h
total protein half-life in vivo [7]: 9.21 ± 0.47 h
total protein half-life in vivo [8]: 3.942 ± 0.016 h
total protein half-life in vivo [9]: 5.56 ± 0.14 h
total protein half-life in vivo [10]: 5.68 ± 0.2 h
total protein half-life in vivo [11]: 12 ± 0.93 h

MLLPWLILIPFIGGFLCWQTERFGVKVPRWIALITMGLTLALSLQLWLQGGYSLTQSAGIPQWQSEFDMPWIPRFGISIHLAIDGLSLLMVVLTGLLGVLAVLCSWKEIEKYQGFFHLNLMWILGGVIGVFLAIDMFLFFFFWEMMLVPMYFLIALWGHKASDGKTRITAATKFFIYTQASGLVMLIAILALVFVHYNATGVWTFNYEELLNTPMSSGVEYLLMLGFFIAFAVKMPVVPLHGWLPDAHSQAPTAGSVDLAGILLKTAAYGLLRFSLPLFPNASAEFAPIAMWLGVIGIFYGAWMAFAQTDIKRLIAYTSVSHMGFVLIAIYTGSQLAYQGAVIQMIAHGLSAAGLFILCGQLYERIHTRDMRMMGGLWSKMKWLPALSLFFAVATLGMPGTGNFVGEFMILFGSFQVVPVITVISTFGLVFASVYSLAMLHRAYFGKAKSQIASQELPGMSLRELFMILLLVVLLVLLGFYPQPILDTSHSAIGNIQQWFVNSVTTTRP [P0AFE8]
total protein half-life in vivo [1]: 7.36 ± 0.89 h
total protein half-life in vivo [2]: 6.54 ± 0.28 h
total protein half-life in vivo [3]: 5.66 ± 0.85 h
total protein half-life in vivo [4]: 6.41 ± 0.17 h
total protein half-life in vivo [5]: 6.818 ± 0.033 h
total protein half-life in vivo [9]: 12.04 ± 0.017 h
total protein half-life in vivo [10]: 6.24 ± 0.25 h

MKRNAKTIIAGMIALAISHTAMADDIKVAVVGAMSGPIAQWGDMEFNGARQAIKDINAKGGIKGDKLVGVEYDDACDPKQAVAVANKIVNDGIKYVIGHLCSSSTQPASDIYEDEGILMISPGATNPELTQRGYQHIMRTAGLDSSQGPTAAKYILETVKPQRIAIIHDKQQYGEGLARSVQDGLKAANANVVFFDGITAGEKDFSALIARLKKENIDFVYYGGYYPEMGQMLRQARSVGLKTQFMGPEGVGNASLSNIAGDAAEGMLVTMPKRYDQDPANQGIVDALKADKKDPSGPYVWITYAAVQSLATALERTGSDEPLALVKDLKANGANTVIGPLNWDEKGDLKGFDFGVFQWHADGSSTAAK
total protein half-life in vivo [1]: 5.85 ± 0.11 h
total protein half-life in vivo [2]: 6.16 ± 0.79 h
total protein half-life in vivo [3]: 6.48 ± 0.55 h
total protein half-life in vivo [4]: 5.84 ± 0.097 h
total protein half-life in vivo [5]: 6.01 ± 0.47 h
total protein half-life in vivo [6]: 3.077 ± 0.0084 h
total protein half-life in vivo [12]: 6.134 ± 0.039 h
total protein half-life in vivo [7]: 11.9 ± 0.26 h
total protein half-life in vivo [8]: 5.87 ± 0.27 h
total protein half-life in vivo [9]: 12.2 ± 0.64 h
total protein half-life in vivo [10]: 5.65 ± 0.13 h
total protein half-life in vivo [11]: 14.3 ± 1.1 h

MQEGQNRKTSSLSILAIAGVEPYQEKPGEEYMNEAQLAHFRRILEAWRNQLRDEVDRTVTHMQDEAANFPDPVDRAAQEEEFSLELRNRDRERKLIKKIEKTLKKVEDEDFGYCESCGVEIGIRRLEARPTADLCIDCKTLAEIREKQMAG [P0ABS1]
total protein half-life in vivo [1]: 6.12 ± 0.34 h
total protein half-life in vivo [2]: 6.26 ± 1.2 h
total protein half-life in vivo [3]: 3.53 ± 0.55 h
total protein half-life in vivo [4]: 3.95 ± 0.44 h
total protein half-life in vivo [5]: 3.12 ± 0.035 h
total protein half-life in vivo [6]: 1.68 ± 0.14 h
total protein half-life in vivo [12]: 3.27 ± 0.28 h
total protein half-life in vivo [7]: 5.07 ± 0.47 h
total protein half-life in vivo [8]: 3.65 ± 0.58 h
total protein half-life in vivo [9]: 7.03 ± 0.073 h
total protein half-life in vivo [10]: 3.71 ± 0.66 h
total protein half-life in vivo [11]: 9.06 ± 0.61 h

MAEHLMSDVPFWQSKTLDEMSDAEWESLCDGCGQCCLHKLMDEDTDEIYFTNVACRQLNIKTCQCRNYERRFEFEPDCIKLTRENLPTFEWLPMTCAYRLLAEGKDLPAWHPLLTGSKAAMHGERISVRHIAVKESEVIDWQDHILNKPDWAQ [P0A8L5]
total protein half-life in vivo [1]: 3.88 ± 0.37 h
total protein half-life in vivo [12]: 1.17 h
total protein half-life in vivo [11]: 1.97 h

MTATAQQLEYLKNSIKSIQDYPKPGILFRDVTSLLEDPKAYALSIDLLVERYKNAGITKVVGTEARGFLFGAPVALGLGVGFVPVRKPGKLPRETISETYDLEYGTDQLEIHVDAIKPGDKVLVVDDLLATGGTIEATVKLIRRLGGEVADAAFIINLFDLGGEQRLEKQGITSYSLVPFPGH
total protein half-life in vivo [2]: 4.03 ± 0.92 h
total protein half-life in vivo [3]: 4.32 ± 0.47 h
total protein half-life in vivo [4]: 4.33 ± 0.17 h
total protein half-life in vivo [5]: 3.58 ± 0.46 h
total protein half-life in vivo [12]: 4.57 ± 0.87 h
total protein half-life in vivo [7]: 8.09 ± 0.39 h
total protein half-life in vivo [8]: 5.06 ± 1 h
total protein half-life in vivo [9]: 6.92 ± 0.095 h
total protein half-life in vivo [10]: 5.1 ± 0.18 h
total protein half-life in vivo [11]: 10.9 ± 0.8 h
